The source of these data is paper PMC3417418 (2012).

Experiment [1] addresses T1, CXCR3 (Homo sapiens, UniProt P49682).
T1 chain: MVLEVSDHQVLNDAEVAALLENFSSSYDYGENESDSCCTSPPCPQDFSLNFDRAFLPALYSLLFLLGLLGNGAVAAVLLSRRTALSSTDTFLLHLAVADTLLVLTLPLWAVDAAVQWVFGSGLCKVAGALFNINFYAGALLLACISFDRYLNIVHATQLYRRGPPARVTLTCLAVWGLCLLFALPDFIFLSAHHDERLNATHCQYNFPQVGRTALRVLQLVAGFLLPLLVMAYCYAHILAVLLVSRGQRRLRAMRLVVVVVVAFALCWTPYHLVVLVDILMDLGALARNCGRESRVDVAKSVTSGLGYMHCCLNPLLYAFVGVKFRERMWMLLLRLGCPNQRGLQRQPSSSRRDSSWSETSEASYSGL
Kind of experiment: competition with 125I-CXCL11 on L1.2 cells.

The target in experiment [2] is T1, CXCR3. Description: competition with 125I-CXCL10 on L1.2 cells.
For experiment [3], the target named is T2, CXCR3 (Homo sapiens, UniProt P49682).
T2 chain: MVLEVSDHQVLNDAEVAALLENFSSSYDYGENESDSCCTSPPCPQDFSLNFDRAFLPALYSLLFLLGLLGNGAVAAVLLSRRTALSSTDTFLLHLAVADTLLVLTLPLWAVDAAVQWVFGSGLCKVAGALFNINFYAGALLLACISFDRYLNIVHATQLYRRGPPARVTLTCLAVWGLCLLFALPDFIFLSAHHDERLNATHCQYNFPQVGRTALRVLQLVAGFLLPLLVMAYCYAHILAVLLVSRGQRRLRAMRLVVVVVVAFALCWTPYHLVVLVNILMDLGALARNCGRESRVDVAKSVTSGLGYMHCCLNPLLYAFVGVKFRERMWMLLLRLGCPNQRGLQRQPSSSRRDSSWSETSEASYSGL
Description: homologous competition 125I radioligand binding on L1.2 cells.

Experiment [4] deals with T3, CXCR3 (Homo sapiens, UniProt P49682).
T3 chain: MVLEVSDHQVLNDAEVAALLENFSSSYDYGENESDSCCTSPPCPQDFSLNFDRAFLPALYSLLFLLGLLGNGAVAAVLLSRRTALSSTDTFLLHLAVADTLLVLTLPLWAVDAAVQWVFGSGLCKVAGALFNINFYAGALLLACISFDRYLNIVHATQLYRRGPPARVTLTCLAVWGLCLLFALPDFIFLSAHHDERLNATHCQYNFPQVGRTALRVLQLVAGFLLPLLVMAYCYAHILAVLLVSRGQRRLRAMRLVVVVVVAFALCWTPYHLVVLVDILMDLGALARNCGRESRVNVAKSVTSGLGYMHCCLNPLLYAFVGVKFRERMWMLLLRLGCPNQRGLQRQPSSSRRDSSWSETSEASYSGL
The experiment is described as above.

Experiment [5] concerns the target T4, CXCR3 (Homo sapiens, UniProt P49682).
T4 chain: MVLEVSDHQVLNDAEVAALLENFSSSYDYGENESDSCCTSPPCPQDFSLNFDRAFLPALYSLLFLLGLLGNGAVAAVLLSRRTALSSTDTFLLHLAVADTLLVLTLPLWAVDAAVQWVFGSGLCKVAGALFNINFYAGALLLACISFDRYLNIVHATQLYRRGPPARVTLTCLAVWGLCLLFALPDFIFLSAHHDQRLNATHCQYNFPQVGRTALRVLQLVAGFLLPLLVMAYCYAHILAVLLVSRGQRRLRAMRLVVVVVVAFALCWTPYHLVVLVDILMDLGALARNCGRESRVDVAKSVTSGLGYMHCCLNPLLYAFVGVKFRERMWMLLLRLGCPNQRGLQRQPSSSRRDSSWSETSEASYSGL
The experiment is described as above.

In experiment [6] the target is T5, CXCR3 (Homo sapiens, UniProt P49682).
T5 chain: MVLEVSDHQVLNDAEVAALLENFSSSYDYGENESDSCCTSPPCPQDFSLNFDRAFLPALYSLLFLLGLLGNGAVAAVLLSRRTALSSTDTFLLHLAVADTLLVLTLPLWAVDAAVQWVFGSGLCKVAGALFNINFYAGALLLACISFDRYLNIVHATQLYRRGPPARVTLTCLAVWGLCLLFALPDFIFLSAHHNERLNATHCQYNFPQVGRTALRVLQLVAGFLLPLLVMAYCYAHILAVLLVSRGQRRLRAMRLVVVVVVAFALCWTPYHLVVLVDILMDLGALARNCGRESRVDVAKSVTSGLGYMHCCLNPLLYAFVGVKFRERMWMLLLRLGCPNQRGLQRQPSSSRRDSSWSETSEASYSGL
The experiment is described as above.

For experiment [7], the target named is T6, CXCR3 (Homo sapiens, UniProt P49682).
T6 chain: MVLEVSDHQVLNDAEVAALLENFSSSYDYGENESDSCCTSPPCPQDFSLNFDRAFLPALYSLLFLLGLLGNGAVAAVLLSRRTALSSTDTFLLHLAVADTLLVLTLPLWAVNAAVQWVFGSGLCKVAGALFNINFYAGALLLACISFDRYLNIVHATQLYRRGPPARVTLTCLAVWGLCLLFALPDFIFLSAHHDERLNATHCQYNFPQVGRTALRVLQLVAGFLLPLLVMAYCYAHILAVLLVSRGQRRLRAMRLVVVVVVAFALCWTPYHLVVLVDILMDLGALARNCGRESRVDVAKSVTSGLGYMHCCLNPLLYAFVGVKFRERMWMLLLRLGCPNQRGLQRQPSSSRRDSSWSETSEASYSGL
The description is as above.

The target of experiment [8] is T7, CXCR3 (Homo sapiens, UniProt P49682).
T7 chain: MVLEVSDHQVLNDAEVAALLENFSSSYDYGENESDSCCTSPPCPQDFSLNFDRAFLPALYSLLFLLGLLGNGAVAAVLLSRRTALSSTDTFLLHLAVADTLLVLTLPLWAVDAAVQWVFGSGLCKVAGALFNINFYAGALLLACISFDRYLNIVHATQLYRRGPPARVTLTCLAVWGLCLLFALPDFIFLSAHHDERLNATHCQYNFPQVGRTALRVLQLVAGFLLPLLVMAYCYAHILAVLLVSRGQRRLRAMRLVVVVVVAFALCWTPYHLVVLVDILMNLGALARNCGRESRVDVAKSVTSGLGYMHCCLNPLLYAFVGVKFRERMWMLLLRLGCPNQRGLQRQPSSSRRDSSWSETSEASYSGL
The description is as above.

B1: CXCL11 (protein)
chain: FPMFKRGRCLCIGPGVKAVKVADIEKASIMYPSNNCDKIEVIITLKENKGQRCLNPKSKQARLIIKKVERKNF
The IC50 is the concentration that gives 50% inhibition. The term Kd denotes the equilibrium constant for the complex coming apart. In the case of B1, the results for the IC50 in the experiment with CXCR3 [1] and with CXCR3 [2] were 1.2 nM and 0.4 nM, respectively. Also, the Kd with CXCR3 [3] turned out to be 2.6 nM; with CXCR3 [4] it was 26.3 nM; with CXCR3 [5], 0.4 nM; with CXCR3 [6], 16 nM; with CXCR3 [7] it was 3.8 nM; in the experiment with CXCR3 [8], 1.4 nM.
